The record followed here is article PMC10778272 (2023).

Assay [1] has as its target T1, GST-Synm-CT (fusion protein of the carboxy-terminus of synemin, amino acids 1464-1565, with GST) (Homo sapiens (Human), UniProt O15061).
T1 chain: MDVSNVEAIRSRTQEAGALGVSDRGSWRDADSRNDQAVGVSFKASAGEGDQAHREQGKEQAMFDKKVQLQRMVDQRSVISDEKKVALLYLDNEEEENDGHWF
The assay can be described thus: Western blot overlay. For orientation: In western blotting, separated proteins are transferred to a membrane and probed.

Assay [2] concerns the target T2, GST-Synm-CTΔ (carboxy-terminally truncated synemin, amino acids 1464-1533, fused to GST) (Homo sapiens (Human), UniProt O15061).
T2 chain: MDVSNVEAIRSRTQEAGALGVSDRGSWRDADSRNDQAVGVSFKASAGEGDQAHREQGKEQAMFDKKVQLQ
The assay can be described thus: Western blot overlay.

B1: T7-tagged PDZ domain of SYNPO2 (protein)
chain: MGTGDFICISMTGGAPWGFRLQGGKEQKQPLQVAKIRNQSKASGSGLCEGDEVVSINGNPCADLTYPEVIKLMESITDSLQMLIKRPSSGISEALISENENKNLEHLTHGGYVESTTLQIRPATKTQCTEFFLAPVKTEVPLAENQRSGPDCAGSLKEETGPSYQRAPQMPDSQRGRVAE
For B1, the binding result in assay [1] is recorded as “binds”; in assay [2], “no binding”.
